# Reference: patent publication US20170190773A1 (IGYXOS, published 2017)
# Legend:
# [1] = target: human FSH (preparation not named) (human, UniProt P01215 25-116; P01225 19-129); assay: cell-based or functional assay
# ovine FSH [2] = target: T1, ovine FSH (ovine, UniProt P01218 25-120; P01227 20-129); assay: cell-based or functional assay
# porcine FSH = porcine FSH (porcine, UniProt P01219 25-120; P01228 21-129); assay: cell-based or functional assay
# [3] = target: human FSH Gonal-F (recombinant human FSH, Merck Serono) (human, UniProt P01215 25-116; P01225 19-129); assay: cell-based or functional assay
# human FSH Gonal-F (recombinant human FSH, Merck Serono), sequence (P01215 25-116, chain 1 of 2): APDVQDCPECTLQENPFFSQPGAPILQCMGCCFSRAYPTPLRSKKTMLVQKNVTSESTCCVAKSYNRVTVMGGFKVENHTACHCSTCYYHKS
# human FSH Gonal-F (recombinant human FSH, Merck Serono), sequence (P01225 19-129, chain 2 of 2): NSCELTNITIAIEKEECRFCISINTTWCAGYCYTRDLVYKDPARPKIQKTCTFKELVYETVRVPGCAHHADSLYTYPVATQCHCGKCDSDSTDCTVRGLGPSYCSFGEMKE
# porcine LH [4] = target: T2, porcine LH (porcine, UniProt P01219 25-120; P01232 21-141); assay: ELISA; hormone adsorbed on the plate (10 µg/ml), scFv at 200 µg/ml, anti-His Tag HRP
# Method: (§1) Each hormone evaluated was prepared at the concentration of 10 μg/ml in a 0.1 M sodium carbonate buffer, pH 9.6, and distributed in a proportion of 100 μl per well on an ELISA plate. The adsorption time was 18 hours at +4° C. After five washes, the wells were treated with 100 µl of PBS supplemented with 0.1% Tween and 1% BSA for 45 minutes at 37° C., then each antibody or scFv was distributed in a proportion of 100 μl/well and incubated for one hour at 37° C. On each hormone evaluated, the antibody and the scFv were distributed at various concentrations according to a range of 10 to 250 μg/ml for the antibodies and of 10 to 150 or 200 μg/ml for the scFv.
# (§2) After five washes, a secondary antibody coupled to peroxidase (HRP) was distributed in a proportion of 100 µl/well and incubated for one hour at 37° C. Depending on the isotype of the monoclonal antibody studied, the secondary antibody was an anti-IgG1 HRP (Ref. 115-035-205, Jackson ImmunoResearch Laboratories Inc), an anti-IgG2a HRP (Ref. 115-035-206, Jackson Laboratories) or an anti-IgM HRP (Ref. 115-035-075, Jackson Laboratories). For the scFvs, an anti-His Tag HRP (Ref. R93125 Life Technologies, France) was used. […] After the reaction had been stopped with 1 M H₂SO₄ (50 μl/well), the strength of the colored reaction (optical density) was measured using a spectrophotometer for ELISA plates.
# bovine LH [5] = target: T3, bovine LH (bovine, UniProt P01217 25-120; P04651 21-141); assay: as above
# Method: as §1, §2
# [6] = target: T4, equine chorionic gonadotropin (equine, UniProt P01220 25-120; P08751 21-169); assay: as above
# T4 construct: also called eCG
# T4 sequence (P01220 25-120, chain 1 of 2): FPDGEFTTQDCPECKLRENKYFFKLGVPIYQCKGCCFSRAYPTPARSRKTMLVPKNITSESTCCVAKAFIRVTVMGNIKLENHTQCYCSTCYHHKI
# T4 sequence (P08751 21-169, chain 2 of 2): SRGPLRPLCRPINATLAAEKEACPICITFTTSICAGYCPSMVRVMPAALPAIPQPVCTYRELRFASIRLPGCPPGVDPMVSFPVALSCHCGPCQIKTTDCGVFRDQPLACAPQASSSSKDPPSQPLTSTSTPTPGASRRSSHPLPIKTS
# Method: as §1, §2
# [7] = target: T5, hCG Chorulon (human chorionic gonadotropin extracted from urine of pregnant women, MSD) (human, UniProt P01215 25-116; P0DN86 21-165); assay: as above
# T5 construct: Commercial urinary hCG, veterinary preparation
# T5 sequence (P01215 25-116, chain 1 of 2, other chains not shown): as the sequence (P01215 25-116, chain 1 of 2) above
# Method: as §1, §2
# [8] = target: T6, hCG Endo 5000 (purified human chorionic gonadotropin, Schering-Plough) (human, UniProt P01215 25-116; P0DN86 21-165); assay: as above
# T6 construct: Commercial purified hCG
# T6 sequence (P01215 25-116, chain 1 of 2, other chains not shown): as the sequence (P01215 25-116, chain 1 of 2) above
# Method: as §1, §2
# ovine LH [9] = target: T7, ovine LH (ovine, UniProt P01218 25-120; P01231 21-141); assay: as above
# Method: as §1, §2
# porcine LH [10] = target: T2, porcine LH; assay: ELISA saturation binding on adsorbed hormone; Kd estimated with GraphPad Prism 'One site-Specific binding'
# Method: as §1, §2
# (§3) An estimation of the dissociation constant Kd of the scFv, with respect to the various FSH, LH and CG studied, was calculated on GraphPad Prism (GraphPad Software Inc., San Diego, Calif., USA, version 5) using the “One site—Specific binding” function in a saturation binding model (“saturation binding experiment model”, GraphPad PRISM software).
# bovine LH [11] = target: T3, bovine LH; assay: as above
# Method: as §1, §2, §3
# [12] = target: T4, equine chorionic gonadotropin; assay: as above
# Method: as §1, §2, §3
# [13] = target: T5, hCG Chorulon (human chorionic …); assay: as above
# Method: as §1, §2, §3
# [14] = target: T6, hCG Endo 5000 (purified human chorionic …); assay: as above
# Method: as §1, §2, §3
# ovine FSH [15] = target: T1, ovine FSH; assay: as above
# Method: as §1, §2, §3
# [16] = target: T8, hMG Menopur (human menopausal gonadotropin, Ferring Pharmaceuticals) (human); assay: as above
# T8 construct: numbers for it cannot be laid to one hormone
# Method: as §1, §2, §3
# ovine LH [17] = target: T7, ovine LH; assay: as above
# Method: as §1, §2, §3
# human FSH (preparation not named), sequence (P01215 25-116, chain 1 of 2): as above
# human FSH (preparation not named), sequence (P01225 19-129, chain 2 of 2): as the sequence (P01225 19-129, chain 2 of 2) above
Binder,"cAMP secretion of bovine granulosa cells, hFSH 3-25 ng/ml pre-complexed with 0.1 µg/ml CF12 against hFSH alone [1] [fold]","increase in the bioactivity of the hormone, LogEC50, GloSensor HEK 293 hFSHR cells (ovine FSH [2]) [LogEC50]","increase in the bioactivity of the hormone, LogEC50, GloSensor HEK 293 hFSHR cells (porcine FSH) [LogEC50]","increase in the bioactivity of the hormone, LogEC50 units, GloSensor HEK 293 hFSHR cells [3] [LogEC50 units]",optical density (porcine LH [4]) [optical density units],optical density (bovine LH [5]) [optical density units],optical density [6] [optical density units],optical density [7] [optical density units],optical density [8] [optical density units],optical density (ovine LH [9]) [optical density units],Kd (porcine LH [10]) [µM],Kd (bovine LH [11]) [µM],Kd [12] [µM],Kd [13] [µM],Kd [14] [µM],Kd (ovine FSH [15]) [µM],Kd [16] [µM],Kd (ovine LH [17]) [µM]
"CF12 monoclonal antibody (antibody, IgM, V domains shown) VH: QGQMQQSGAELVKPGASVKLSCKTSGFTFSSSYISWLKQKPGQSLEWIAWIYAGTGGTSYNQKFTGKAQLTVDTSSSTAYMQFSSLTTEDSAIYYCARHGSYFDYWGQGTTLTVSS VL: not shown",2.5,1.06,0.717,0.7,–,–,–,–,–,–,–,–,–,–,–,–,–,–
"CF12 scFv (scFv, Made in E. coli periplasm; also called scFv derived from the CF12 antibody) scFv: QVQLQQSGGAELVKPGASVKLSCKTSGFTFSSSYISWLKQKPGQSLEWIAWIYAGTGGTSYNQKFTGKAQLTVDTSSSTAYMQFSSLTTEDSAIYYCARHGSYFDYWGQGTTLTVSSGGGGSGGGGSGGGGSDIQMTQTPASLAVSLGQRATISCKASQSVDYDGDSYMNWYQQKPGQPPKLLIYAASNLESGIPARFSGSGSGTDFTLNIHPVEEEDAATYYCQQSNEDPYTFGGGTKLEIKHHHHHH",–,–,–,–,2.2,2.2,0.6,0.35,0.38,2,4.73,5.03,6.12,5.07,6.24,3.78,14,5.81
